From PMC11470942 (Nature Communications, 2024)

Target: HPIV3 fusion protein (F), parental (Human parainfluenza virus 3, strain …, UniProt P06828)
Assay: immunostaining of cells or tissue

Chain of HPIV3 fusion protein (F), parental (P06828 19-539): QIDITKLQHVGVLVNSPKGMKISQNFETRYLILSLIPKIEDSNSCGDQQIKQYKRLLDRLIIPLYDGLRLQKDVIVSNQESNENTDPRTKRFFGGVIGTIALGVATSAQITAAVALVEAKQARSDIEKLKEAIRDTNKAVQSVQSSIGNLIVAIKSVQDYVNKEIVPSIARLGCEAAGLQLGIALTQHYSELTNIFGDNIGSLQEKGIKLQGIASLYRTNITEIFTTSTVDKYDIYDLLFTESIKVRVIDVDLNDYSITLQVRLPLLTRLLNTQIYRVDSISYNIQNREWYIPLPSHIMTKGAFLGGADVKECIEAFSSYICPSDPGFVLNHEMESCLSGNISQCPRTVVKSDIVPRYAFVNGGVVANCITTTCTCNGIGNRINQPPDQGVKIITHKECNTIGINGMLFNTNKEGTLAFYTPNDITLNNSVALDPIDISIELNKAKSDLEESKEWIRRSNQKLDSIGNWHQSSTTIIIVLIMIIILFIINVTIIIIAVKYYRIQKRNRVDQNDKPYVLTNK

B1: PIA174 antibody fragment (Fab) (Fab, V domains shown)
VH: VQLQESGPGLVKPSETLSLTCTVSGGSVSSYYWSWIRQPPGKGLEWIGNIYYSGTTKYNPSLKSRVTISVDVSKNQFSLNLISVTAADTAVYFCARQVKSGWFVQPFDYWGQGALVTVSS
VL: QMTQSPPSLSAYVGDRVTITCRASQAIANYLAWFQQKPGKAPKSLIYAASTLQSGVPSRFSGSGSGTDFTLTISSLQPEDFATYYCHQYNTYPITFGQGTRLEIK
  binding result: binds
